Laboratory results as given in the supplement of paper PMC9428881.
± gives the standard error.

assay: background-corrected fluorescence of 3'-dye-labeled ssDNA relative to brightest sequence (3'-GCGCG) (fraction); higher = brighter dye fluorescence (less quenching); details: dye: Cy3 (3' terminal)
Summary of the method: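 Fluorescence values are background-corrected using unlabeled oligos and expressed relative to the brightest sequence. The single-stranded DNA was made on glass slides by light-directed phosphoramidite synthesis, each of 1024 permuted pentamers ending beside a 3' Cy3 or Cy5 dye. Scans at 532 or 635 nm were taken before and after overnight ethylenediamine/ethanol deprotection, and each value averages 10 features per array and at least 3 syntheses.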

Row | Sequence | background-corrected fluorescence
1 | TTTTTTCATGATCATGATGCTTTTTTTTTTTTTTTGCGCA [ACGCG] | 0.714 ± 0.027
2 | TTTTTTCATGATCATGCGCATTTTTTTTTTTTTTTGCGAT [TAGCG] | 0.5348 ± 0.0049
3 | TTTTTTCATGATCATGCTCATTTTTTTTTTTTTTTGCGAG [GAGCG] | 0.608 ± 0.03
4 | TTTTTTCATGATCATGCTGATTTTTTTTTTTTTTTGCGAC [CAGCG] | 0.518 ± 0.026
5 | TTTTTTCATGATCATGCTGCTTTTTTTTTTTTTTTGCGAA [AAGCG] | 0.666 ± 0.028
6 | TTTTTTCATGATGAGCAGCATTTTTTTTTTTTTTTGCCTT [TTCCG] | 0.489 ± 0.031
7 | TTTTTTCATGATGAGCATCATTTTTTTTTTTTTTTGCCTG [GTCCG] | 0.481 ± 0.028
8 | TTTTTTCATGATGAGCATGATTTTTTTTTTTTTTTGCCTC [CTCCG] | 0.354 ± 0.016
9 | TTTTTTCATGATGAGCATGCTTTTTTTTTTTTTTTGCCTA [ATCCG] | 0.493 ± 0.016
10 | TTTTTTCATGATGATCAGCATTTTTTTTTTTTTTTGCCGT | 0.651 ± 0.025
11 | TTTTTTCATGATGATCATCATTTTTTTTTTTTTTTGCCGG [GGCCG] | 0.665 ± 0.025
12 | TTTTTTCATGATGATCATGATTTTTTTTTTTTTTTGCCGC [CGCCG] | 0.549 ± 0.017
13 | TTTTTTCATGATGATCATGCTTTTTTTTTTTTTTTGCCGA [AGCCG] | 0.621 ± 0.024
14 | TTTTTTCATGATGATGAGCATTTTTTTTTTTTTTTGCCCT [TCCCG] | 0.449 ± 0.021
15 | TTTTTTCATGATGATGATCATTTTTTTTTTTTTTTGCCCG | 0.488 ± 0.0067
16 | TTTTTTCATGATGATGATGATTTTTTTTTTTTTTTGCCCC [CCCCG] | 0.32 ± 0.038
17 | TTTTTTCATGATGATGATGCTTTTTTTTTTTTTTTGCCCA [ACCCG] | 0.479 ± 0.026
18 | TTTTTTCATGATGATGCGCATTTTTTTTTTTTTTTGCCAT [TACCG] | 0.516 ± 0.048
19 | TTTTTTCATGATGATGCTCATTTTTTTTTTTTTTTGCCAG [GACCG] | 0.519 ± 0.015
20 | TTTTTTCATGATGATGCTGATTTTTTTTTTTTTTTGCCAC [CACCG] | 0.393 ± 0.022
21 | TTTTTTCATGATGATGCTGCTTTTTTTTTTTTTTTGCCAA [AACCG] | 0.504 ± 0.034
22 | TTTTTTCATGATGCGCAGCATTTTTTTTTTTTTTTGCATT [TTACG] | 0.514 ± 0.018
23 | TTTTTTCATGATGCGCATCATTTTTTTTTTTTTTTGCATG [GTACG] | 0.508 ± 0.023

Row | Sequence | background-corrected fluorescence
24 | TTTTTTCATGATGCGCATGATTTTTTTTTTTTTTTGCATC [CTACG] | 0.441 ± 0.025
25 | TTTTTTCATGATGCGCATGCTTTTTTTTTTTTTTTGCATA [ATACG] | 0.574 ± 0.02
26 | TTTTTTCATGATGCTCAGCATTTTTTTTTTTTTTTGCAGT [TGACG] | 0.607 ± 0.021
27 | TTTTTTCATGATGCTCATCATTTTTTTTTTTTTTTGCAGG [GGACG] | 0.642 ± 0.025
28 | TTTTTTCATGATGCTCATGATTTTTTTTTTTTTTTGCAGC [CGACG] | 0.508 ± 0.0059
29 | TTTTTTCATGATGCTCATGCTTTTTTTTTTTTTTTGCAGA [AGACG] | 0.682 ± 0.017
30 | TTTTTTCATGATGCTGAGCATTTTTTTTTTTTTTTGCACT [TCACG] | 0.482 ± 0.048
31 | TTTTTTCATGATGCTGATCATTTTTTTTTTTTTTTGCACG | 0.548 ± 0.028
32 | TTTTTTCATGATGCTGATGATTTTTTTTTTTTTTTGCACC [CCACG] | 0.391 ± 0.024
33 | TTTTTTCATGATGCTGATGCTTTTTTTTTTTTTTTGCACA [ACACG] | 0.483 ± 0.025
34 | TTTTTTCATGATGCTGCGCATTTTTTTTTTTTTTTGCAAT [TAACG] | 0.53 ± 0.018
35 | TTTTTTCATGATGCTGCTCATTTTTTTTTTTTTTTGCAAG [GAACG] | 0.503 ± 0.04
36 | TTTTTTCATGATGCTGCTGATTTTTTTTTTTTTTTGCAAC [CAACG] | 0.469 ± 0.014
37 | TTTTTTCATGATGCTGCTGCTTTTTTTTTTTTTTTGCAAA [AAACG] | 0.599 ± 0.028
38 | TTTTTTCATGCGCAGCAGCATTTTTTTTTTTTTTTGATTT [TTTAG] | 0.531 ± 0.03
39 | TTTTTTCATGCGCAGCATCATTTTTTTTTTTTTTTGATTG [GTTAG] | 0.543 ± 0.0077
40 | TTTTTTCATGCGCAGCATGATTTTTTTTTTTTTTTGATTC [CTTAG] | 0.451 ± 0.026
41 | TTTTTTCATGCGCAGCATGCTTTTTTTTTTTTTTTGATTA [ATTAG] | 0.547 ± 0.022
42 | TTTTTTCATGCGCATCAGCATTTTTTTTTTTTTTTGATGT [TGTAG] | 0.653 ± 0.025
43 | TTTTTTCATGCGCATCATCATTTTTTTTTTTTTTTGATGG [GGTAG] | 0.62 ± 0.012
44 | TTTTTTCATGCGCATCATGATTTTTTTTTTTTTTTGATGC [CGTAG] | 0.522 ± 0.031
45 | TTTTTTCATGCGCATCATGCTTTTTTTTTTTTTTTGATGA [AGTAG] | 0.653 ± 0.035
46 | TTTTTTCATGCGCATGAGCATTTTTTTTTTTTTTTGATCT [TCTAG] | 0.456 ± 0.055

Row | Sequence | background-corrected fluorescence
47 | TTTTTTCATGCGCATGATCATTTTTTTTTTTTTTTGATCG [GCTAG] | 0.545 ± 0.016
48 | TTTTTTCATGCGCATGATGATTTTTTTTTTTTTTTGATCC [CCTAG] | 0.398 ± 0.022
49 | TTTTTTCATGCGCATGATGCTTTTTTTTTTTTTTTGATCA [ACTAG] | 0.535 ± 0.034
50 | TTTTTTCATGCGCATGCGCATTTTTTTTTTTTTTTGATAT [TATAG] | 0.532 ± 0.024
51 | TTTTTTCATGCGCATGCTCATTTTTTTTTTTTTTTGATAG | 0.526 ± 0.03
52 | TTTTTTCATGCGCATGCTGATTTTTTTTTTTTTTTGATAC [CATAG] | 0.448 ± 0.026
53 | TTTTTTCATGCGCATGCTGCTTTTTTTTTTTTTTTGATAA [AATAG] | 0.587 ± 0.042
54 | TTTTTTCATGCTCAGCAGCATTTTTTTTTTTTTTTGAGTT | 0.621 ± 0.031
55 | TTTTTTCATGCTCAGCATCATTTTTTTTTTTTTTTGAGTG [GTGAG] | 0.578 ± 0.031
56 | TTTTTTCATGCTCAGCATGATTTTTTTTTTTTTTTGAGTC [CTGAG] | 0.469 ± 0.015
57 | TTTTTTCATGCTCAGCATGCTTTTTTTTTTTTTTTGAGTA [ATGAG] | 0.603 ± 0.026
58 | TTTTTTCATGCTCATCAGCATTTTTTTTTTTTTTTGAGGT [TGGAG] | 0.708 ± 0.038
59 | TTTTTTCATGCTCATCATCATTTTTTTTTTTTTTTGAGGG [GGGAG] | 0.759 ± 0.02
60 | TTTTTTCATGCTCATCATGATTTTTTTTTTTTTTTGAGGC [CGGAG] | 0.585 ± 0.015
61 | TTTTTTCATGCTCATCATGCTTTTTTTTTTTTTTTGAGGA [AGGAG] | 0.747 ± 0.023
62 | TTTTTTCATGCTCATGAGCATTTTTTTTTTTTTTTGAGCT [TCGAG] | 0.559 ± 0.024
63 | TTTTTTCATGCTCATGATCATTTTTTTTTTTTTTTGAGCG [GCGAG] | 0.654 ± 0.03
64 | TTTTTTCATGCTCATGATGATTTTTTTTTTTTTTTGAGCC [CCGAG] | 0.425 ± 0.012
65 | TTTTTTCATGCTCATGATGCTTTTTTTTTTTTTTTGAGCA [ACGAG] | 0.585 ± 0.025
66 | TTTTTTCATGCTCATGCGCATTTTTTTTTTTTTTTGAGAT [TAGAG] | 0.578 ± 0.051
67 | TTTTTTCATGCTCATGCTCATTTTTTTTTTTTTTTGAGAG | 0.6283 ± 0.0056
68 | TTTTTTCATGCTCATGCTGATTTTTTTTTTTTTTTGAGAC [CAGAG] | 0.476 ± 0.015
